Here are results for 26 sequences from the supplement of paper PMC9170038.

In data set [1] the test system is MS2 coat protein. Briefly: apparent KD of MS2 coat protein; designed switch direction (-1 OFF switch, 1 ON switch): 1; higher = weaker reporter binding. Summed up:
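RNA switches sharing common flanks were transcribed by stalled E. coli RNA polymerase on Illumina chips. A doubling series of SNAP-549-labelled MS2 coat protein, from 0.7 or 1.5 nM to 3 µM, was applied in Tris-HCl pH 7.5 buffer with KCl, MgCl2, BSA, DTT, tRNA and Tween-20. Each step lasted 0.8–1.5 h at the bottom of the series and 10–20 min at the top. Normalised cluster fluorescence was curve-fitted, giving apparent KD as the per-design median over clusters.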

Data set [2] deals with MS2 coat protein. The experiment in a line: apparent KD of MS2 coat protein; higher = weaker reporter binding. The note with it: Eterna round: R107. Summed up:
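On-chip transcription from Illumina sequencing clusters produced the designed RNA switches. These were titrated with SNAP-549-labelled MS2 coat protein (twofold steps, 0.7 or 1.5 nM to 3 µM) in 100 mM Tris-HCl pH 7.5, 80 mM KCl, 4 mM MgCl2, with or without constant ligand. The apparent KD given is the per-design median of normalised cluster binding-curve fits.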

The mark [3] stands for this setting: input ligand: microRNA oligo, concentration not stated.
[4] abbreviates: Eterna round: R95, input ligand: FMN 200 uM.
The mark [5] stands for this setting: Eterna round: R95, input ligand: microRNA oligo, concentration not stated.
[6] abbreviates: Eterna round: R95, input ligand: none.
Setting [7] is: input ligand: theophylline 20 uM.
[8] abbreviates: input ligand: tryptophan 2.4 mM.
[9] abbreviates: input ligand: theophylline 2 mM.

With “AAAACAUGAGGAUCACCCAUGUGUAAAAGAUACCGGAUGGUGCAGGAUAUAUCCCAUUAAAGUGGAUAGAAGGGUGGCAUCAAG [Eternabot solution 46] (Eterna round: R96, puzzle: Same State NG 3)”, the “apparent KD of MS2 coat protein” value in the data set with MS2 coat protein [1] (input ligand: FMN 200 uM) was determined as 20.8 nM; in the data set on MS2 coat protein [1] (setting [3]) it was 32.5 nM; with MS2 coat protein [1] (input ligand: none), 32.1 nM.
For “AAACACAUGAGGAUCACCCAUGUAGCACCAUUGAGGCGCACAUAGGAUAUCCGGUCCAAAAGACCGGAGAAGGGUGAAAGAAAA [Veandi] (Eterna round: R96, puzzle: Same State NG 3)”, in that order: 59.7 nM, 371 nM and 328 nM.
In the same order, the values of “AAACAUGAGCGAGGAUAUGCAGAGGAUCACCCUGUAGAAGGCGCAUGUAAAACAACAUGAGGAUCACCCAUGUCAUGUACAUGA (Eterna round: R96, puzzle: Same State NG 1)” are 19.4 nM, 15.3 nM and 20.2 nM.
As to “AAACGGUCGCUGCGGCAACCACAUGAGGAUCACCCAUGUACAUAGGAUAUCGCCUAAAAUACUGGCGAGAAGGGUGAUUAAAGA [Onbiriza] (Eterna round: R96, puzzle: Same State NG 3)”, the figures for the “apparent KD of MS2 coat protein” value with MS2 coat protein [1] (input ligand: FMN 200 uM), in the data set with MS2 coat protein [1] (setting [3]) and in the data set on MS2 coat protein [1] (input ligand: none) were 28.7 nM, 17.9 nM and 73.7 nM, respectively.
Take “AAAGAAAACGCAGGAUAUCCCGGAAAAGAUCCGGGAGAAGGGUGACCGGUACAUGAGGAUCACCCAUGUAGAGCAAAGGCUCAA [Ceonbeti] (Eterna round: R96, puzzle: Same State NG 1)”: the “apparent KD of MS2 coat protein” value with MS2 coat protein [1] (input ligand: FMN 200 uM) amounted to 232 nM; with MS2 coat protein [1] (setting [3]) it was 133 nM; in the data set with MS2 coat protein [1] (input ligand: none) it was 128 nM.
In the case of “AACAAUCUAUCUGAGGAUAUCAUGAAUAAAACAUGAGGAUCACCCAUGUGCAGGAAAACUGCAUAUGAGAAGGCAGAUAGAUUGU [Mat - Same State 2 - Mod - D11] (puzzle: Same State 2)”, the “apparent KD of MS2 coat protein” value in the data set on MS2 coat protein [1] (setting [4]) is 69.3 nM; in the data set with MS2 coat protein [1] (setting [5]), 2610 nM; in the data set on MS2 coat protein [1] (setting [6]), 2140 nM.
For “AACAAUCUAUCUGAGGAUAUCAUGAAUUAAACAUGAGGAUCACCCAUGUGCAGGAAAACUGCAUAUGAGAAGGCAGAUAGAUUGA [salish99_ss2_r3_032] (puzzle: Same State 2)”, in that order: 40.2 nM, 707 nM and 58.7 nM.
For “AACCAACAAAUAAAACAAGCGUGCUCGUCACAUGAGGAUCACCCAUGUUUAAGCGCUGUUCCUACAUCCGCAGCGCC [Inbitiar] (puzzle: Sensor for hsa-mir-208a)”, in that order: 178 nM, 32.5 nM and 232 nM.
Take “AACCCGAUGGAAGGAUAUGGCACCUUAUUGGUGCCAGAAGGUCCAAACAUGAGGAUCACCCAUGUGGGCCGGUCGAAAGACCGG [Fiskers NG1ss - 11] (Eterna round: R96, puzzle: Same State NG 1)”: the figures for the “apparent KD of MS2 coat protein” value in the data set on MS2 coat protein [1] (input ligand: FMN 200 uM), in the data set with MS2 coat protein [1] (setting [3]) and in the data set on MS2 coat protein [1] (input ligand: none) were 32.4 nM, 53.2 nM and 75.2 nM, respectively.
Regarding “AACUGUUUCUGAGGAUAUCAGUAGUAUGCCAAUUGAGAAGGCAGUACAUGAGGAUCACCCAUGUUGUGGUUUGAUAGAAUGAUA [JR_SSNG1_Sub003] (Eterna round: R96, puzzle: Same State NG 1)”, the “apparent KD of MS2 coat protein” value with MS2 coat protein [1] (input ligand: FMN 200 uM) worked out at 182 nM; in the data set with MS2 coat protein [1] (setting [3]), 133 nM; in the data set on MS2 coat protein [1] (input ligand: none), 214 nM.
Take “AAGAGAGGAAGCGAGGAUAUCGUGGGAGGGACAUGAGGAUCACCCAUGUAGGAUGUAGAGAGGAACGAGAAGGCGCAGGAAAGAA [JR_SS2_Sub073] (puzzle: Same State 2)”: the results for the “apparent KD of MS2 coat protein” value in the data set with MS2 coat protein [1] (setting [4]), in the data set with MS2 coat protein [1] (setting [5]) and with MS2 coat protein [1] (setting [6]) were 49 nM, 67.7 nM and 79.2 nM, respectively.
For “AAGAUGCUCGUAGGAUAUUGGAAAGGAAGUGUACAAGAAGGACGGUGUCACAUGAGGAUCACCCAUGUUACAGUCUAAGGACUA [PowerStrip SSNG 1.16] (Eterna round: R96, puzzle: Same State NG 1)”, the “apparent KD of MS2 coat protein” value in the data set on MS2 coat protein [1] (input ligand: FMN 200 uM) amounted to 21.5 nM; in the data set on MS2 coat protein [1] (setting [3]), 13.2 nM; with MS2 coat protein [1] (input ligand: none), 20.3 nM.
In the case of “AAGGUGCAGGUACAGGAUAUGUUGCUCGUAACAUGAGGAUCACCCAUGUACCUAUGAGAUUAAAUGCAGAAGGGUGCACACCAAA [Mat - Same State 2 - Mod of UCT - D91] (Eterna round: R96, puzzle: Same State 2)”, the “apparent KD of MS2 coat protein” value turned out to be 70.6 nM in the data set with MS2 coat protein [1] (input ligand: FMN 200 uM), 168 nM in the data set with MS2 coat protein [1] (setting [3]) and 731 nM in the data set with MS2 coat protein [1] (input ligand: none).
For “AAGGUGCAGGUACAGGAUAUGUUGCUCGUAACAUGAGGAUCACCCAUGUACCUAUGAGAUUAAAUGCAGAAGGGUGCACACCAAA [Mat - Same State 2 - Mod of UCT - D91] (puzzle: Same State 2)”, the “apparent KD of MS2 coat protein” value in the data set with MS2 coat protein [1] (setting [4]) turned out to be 73 nM; in the data set on MS2 coat protein [1] (setting [5]), 484 nM; in the data set with MS2 coat protein [1] (setting [6]) it was 302 nM.
Regarding “AAUAAGUUCAGCUCGUCUUGCGCCGACUGACAUGAGGAUCACCCAUGUGGAUUCCAAGAGAUCCAUUGGCGUGUUUC [Erisdian] (puzzle: Sensor for hsa-mir-208a)”, the “apparent KD of MS2 coat protein” value was 37.9 nM in the data set with MS2 coat protein [1] (setting [4]), 87.6 nM with MS2 coat protein [1] (setting [5]) and 79 nM with MS2 coat protein [1] (setting [6]).
Regarding “AAUCGUUUGAUAGGAUAUCGCUAUACAUGAGGAUCACCCAUGUUUACCACGCUGGUUUUUCGUACUGAGAAGGAUUCUGAUGAU [JL JR sub007 mod 7] (Eterna round: R96, puzzle: Same State NG 2)”, the results for the “apparent KD of MS2 coat protein” value in the data set on MS2 coat protein [1] (input ligand: FMN 200 uM), in the data set with MS2 coat protein [1] (setting [3]) and in the data set on MS2 coat protein [1] (input ligand: none) were 36.1 nM, 30.4 nM and 42.5 nM, respectively.
“AAUUAAGAUUGAGGAUAUCACGUCGAUUAGACGUGAGAAGGCGAUCAUAACAUGAGGAUCACCCAUGUAUUACAUGAAUUAAUU [SSNG1/5-B2] (Eterna round: R96, puzzle: Same State NG 1)”: the “apparent KD of MS2 coat protein” value in the data set with MS2 coat protein [1] (input ligand: FMN 200 uM) amounted to 31.9 nM; with MS2 coat protein [1] (setting [3]) it was 26.2 nM; with MS2 coat protein [1] (input ligand: none) it was 36.6 nM.
Consider “AAUUUAAUACAUGAGGAUCACCCAUGUAAUACUAGUAAGAUCUAGGAUAUCAGCUCGAUUAGAGCUGAGAAGGAGAUCACAUGU [SSNG3/19-C2] (Eterna round: R96, puzzle: Same State NG 3)”, for which, in the data set on MS2 coat protein [1] (setting [3]), the “apparent KD of MS2 coat protein” value was 82.9 nM.
Consider “ACACAGCUGGGUGAGGAUAUCGGUGGUAAAACAUGAGGAUCACCCAUGUCCGAAGCUCGGACUUCCGAGAAGGCGCCCGGCUGCA [Areronanma] (puzzle: Same State 2)”, for which the “apparent KD of MS2 coat protein” value with MS2 coat protein [1] (setting [4]) was 12.4 nM; in the data set on MS2 coat protein [1] (setting [5]), 86.4 nM; in the data set on MS2 coat protein [1] (setting [6]), 151 nM.
With “ACAGAGUGAAGACAGGAUAUUCGCGAUGGCACAUGAGGAUCACCCAUGUUUUGAGCACAUAAACAGAAGAAGGGUUAAAACUCAG [Zadier] (Eterna round: R96, puzzle: Same State 2)”, the “apparent KD of MS2 coat protein” value in the data set on MS2 coat protein [1] (input ligand: FMN 200 uM) is 13.6 nM; in the data set on MS2 coat protein [1] (setting [3]), 74.1 nM; with MS2 coat protein [1] (input ligand: none), 104 nM.
“ACAGAGUGAAGACAGGAUAUUCGCGAUGGCACAUGAGGAUCACCCAUGUUUUGAGCACAUAAACAGAAGAAGGGUUAAAACUCAG [Zadier] (puzzle: Same State 2)”: the “apparent KD of MS2 coat protein” value was 15 nM in the data set with MS2 coat protein [1] (setting [4]), 119 nM in the data set on MS2 coat protein [1] (setting [5]) and 362 nM in the data set with MS2 coat protein [1] (setting [6]).
For the sequence “UUGUACGAAACUGAUACCAGCCAGCAAUGCCACCAAGAGCACAUGAGGAUCACCCAUGUUGGCCCUUGGCAGCAGGACAAUAAGC [theeternabot_exclusion_MS2_Theo_B_3]”, the entries for the “apparent KD of MS2 coat protein” value with MS2 coat protein [2] (input ligand: arginine 13.2 mM), in the data set on MS2 coat protein [2] (setting [7]) and with MS2 coat protein [2] (setting [8]) were 7.44 nM, 10.6 nM and 8.91 nM, respectively.
For “UUUAACAAGAACGUCCUGAGUGACAAGCUACGAGGACCGGUACGGCCGCCACUCGUACCAAAACAUGAGGAUCACCCAUGUUAAA [theeternabot_exclusion_MS2_Trp_A_44]”, the “apparent KD of MS2 coat protein” value in the data set on MS2 coat protein [2] (input ligand: arginine 13.2 mM) stood at 13.4 nM; in the data set with MS2 coat protein [2] (setting [7]), 19.3 nM; in the data set with MS2 coat protein [2] (setting [9]), 21.1 nM.
With “UUUAAGAACCGAAGGAGCGCCAGAAAUAAGAACGCUACAUGAGGAUCACCCAUGUAAUAAGGGCAGGUAGGUCGCGGAAUUUAAA [last]”, the “apparent KD of MS2 coat protein” value in the data set on MS2 coat protein [2] (input ligand: arginine 13.2 mM) was found to be 17.9 nM; in the data set with MS2 coat protein [2] (input ligand: none), 21.2 nM; in the data set with MS2 coat protein [2] (setting [7]), 33.4 nM; with MS2 coat protein [2] (setting [9]), 24.7 nM; in the data set with MS2 coat protein [2] (setting [8]), 21.4 nM.
Regarding “UUUGAUAGGACAGAUACCAGCGUGUUGUUGAACAUGAGGAUCACCCAUGUAGUGAUCGAGCGCCCUUGGCAGCUGGUUUGUUAGG [7.O]”, the results for the “apparent KD of MS2 coat protein” value with MS2 coat protein [2] (input ligand: arginine 13.2 mM), in the data set on MS2 coat protein [2] (setting [7]) and in the data set on MS2 coat protein [2] (setting [8]) were 102 nM, 434 nM and 307 nM, respectively.
In the same order, the values of “UUUUAAAGCAUGGCGUAUCGGAAAACCGAUACCAGUACAGAAAUGUACCCUUGGCAGCGGCAUUUUACAUGAGGAUCACCCAUGU [Ex Theophylline A 2]” are 16 nM, 18.4 nM and 14.5 nM.
